Test results as given in article PMC3155284.

Assays:
[1] = molecular target: EphA2, endogenous (human (endogenous in PC3 and U251)) (UniProt P29317)
[2] = molecular target: EphA2, endogenous (human (endogenous in PC3 and U251)) (UniProt P29317); remark: listed apart in the source

UniProt P29317, sequence (P29317 24-976): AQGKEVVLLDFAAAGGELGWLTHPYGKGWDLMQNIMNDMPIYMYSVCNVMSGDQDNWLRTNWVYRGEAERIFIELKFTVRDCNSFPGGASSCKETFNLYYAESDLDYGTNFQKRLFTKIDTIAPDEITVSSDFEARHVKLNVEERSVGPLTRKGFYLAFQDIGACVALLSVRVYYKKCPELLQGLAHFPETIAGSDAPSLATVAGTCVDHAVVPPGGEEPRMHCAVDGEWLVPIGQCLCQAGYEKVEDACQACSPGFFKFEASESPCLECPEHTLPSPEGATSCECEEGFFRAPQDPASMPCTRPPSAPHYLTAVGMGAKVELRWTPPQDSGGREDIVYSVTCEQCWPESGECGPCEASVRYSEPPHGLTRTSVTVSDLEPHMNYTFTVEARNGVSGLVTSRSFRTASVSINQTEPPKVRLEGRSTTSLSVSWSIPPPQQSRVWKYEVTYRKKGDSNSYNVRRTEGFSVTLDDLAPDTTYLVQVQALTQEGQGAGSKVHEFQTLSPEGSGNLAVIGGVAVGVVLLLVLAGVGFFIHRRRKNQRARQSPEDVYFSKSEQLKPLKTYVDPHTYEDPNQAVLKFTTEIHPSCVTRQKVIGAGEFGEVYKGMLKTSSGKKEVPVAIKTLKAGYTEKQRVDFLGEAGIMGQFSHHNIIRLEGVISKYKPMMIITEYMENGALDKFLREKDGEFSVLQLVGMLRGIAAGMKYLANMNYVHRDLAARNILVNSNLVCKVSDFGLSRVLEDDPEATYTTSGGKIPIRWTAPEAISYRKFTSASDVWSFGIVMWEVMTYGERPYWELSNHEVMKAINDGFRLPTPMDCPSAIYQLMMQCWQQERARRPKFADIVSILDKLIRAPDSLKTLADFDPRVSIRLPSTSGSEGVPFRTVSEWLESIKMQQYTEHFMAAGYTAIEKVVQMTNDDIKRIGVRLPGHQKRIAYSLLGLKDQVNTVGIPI

- inhibition of U251 cell migration in Boyden chambers by ligand [1]: 50%
- rounding of PC3 cells after a brief exposure to ephrin A1-Fc [2]: 90%
Substance: ephrin A1-Fc (from UniProt P20827 19-182) (Fc fusion)
